Test results: patent publication US20260150817A1 (LEVERAGEN, published 2026)
Positions count from the first letter of the chain named.

B1: M320_5 Nb-Fc (Fc fusion)
chain: EVQLQQSGPELVKPGASVKMSCKASGYTFTDYYIKWEKQSHGKSLEWIGDINPKNGETFYNQQFKGKATLTVDKSSSTAYMQLNSLTSEDSAVYYCARKEYGDYGYAVDYWGQGTSVTVSS
notes: also called LVGN-S3205
B2: M2S320_75 Nb-Fc (Fc fusion)
chain: B1 chain with I34M, E37L, S40N, K54N, E57D, Q63K, K74T, V108T
notes: also called LVGN-S32075
B3: M2S320_377 Nb-Fc (Fc fusion)
chain: B1 chain with I34V, E37K, K54N, E57D, Q63K, G66D, D103N, Y104F
notes: also called LVGN-S320377
B4: M2S521_623 Nb-Fc (Fc fusion)
chain: EVQLQQSGPELVKPGASVKISCKASGYTFTDYYMKWEKQSHGKSLEWIGDINPNNGGTRYNQKFRGKATLTVDKSSSTAYMELRSLTSEDSAVYYCARLEDDYYGYAVDYWGQGTSVTVSS
notes: also called LVGN-S521623
B5: M2S521_72 Nb-Fc (Fc fusion)
chain: B4 chain with E37A, D50H, N54V, G57D, R59S, R65K, A79V, D102G, A107T, V108M
notes: also called LVGN-S52172
B6: M2S521_193 Nb-Fc (Fc fusion)
chain: B4 chain with E37V, T58A, R65K, K67R, A97S, D102G
notes: also called LVGN-S521193
B7: M2S521_378 Nb-Fc (Fc fusion)
chain: B4 chain with E37V, N54K, R59N, R65K, G66D, D102G, V108I, G112S
notes: also called LVGN-S521378
B8: MS521_35 Nb-Fc (Fc fusion)
chain: EVQLQQSGPELVKPGASVKISCKASGYTFTDYYMKWVKQRHGQSLEWIGNINPTNGDTNYSQNFKGKATLTVDKSSTTAYMELRSLTSEDSAVYYCARLEDGYYGYAVDYWGQGTSVTVSS
notes: also called LVGN-S52135

Target: T1, Spike protein of the COVID-19 Spike-ACE2 Binding Assay Kit (Raybiotech) (SARS-CoV-2, UniProt P0DTC2 319-541)

In order of rising IC50:
1. B5  41 pM
2. B2  120 pM
3. B4  130 pM
4. B6  160 pM
5. B1  400 pM
6. B8  490 pM
7. B3  1600 pM
8. B7  2200 pM

Target: T1, Spike protein of the COVID-19 …
Remark: another data set of the same source

In order of rising IC50:
1. B1  397 pM
2. B8  489 pM
